2 molecules from patent US20190359722A1 (TOYO UNIVERSITY, published 2019) can be followed below.

The assay concerns the target T1, full-length human EPHA2 expressed on 293T cells (pcDNA-DEST40-EPHA2) (human, UniProt P29317 24-976).
T1 construct: The stop codon was removed before transfer into pcDNA-DEST40; also called EPHA2-expressing 293T cells
The assay is described as follows: flow cytometry, hybridoma supernatant on EPHA2-transfected 293T cells. On the procedure: 293T cells were seeded at a density of 5×10⁴ cells/cm² on a collagen type I-coated flask (IWAKI), and were then cultured in DMEM supplemented with 10% FBS at 37° C. in 5% CO₂ under a humidified atmosphere overnight. On the following day, the 293T cells were transfected with each of pcDNA-DEST40-EPHA2 and pcDNA-DEST40-ERBB2 (negative control), using Lipofectamine 2000 (Invitrogen, Thermo Fisher Scientific), and thereafter, the resulting cells were further cultured at 37° C. in 5% CO₂ under a humidified atmosphere overnight. On the following day, the transfected cells were treated with trypsin, and were then washed with DMEM supplemented with 10% FBS. The resulting cells were suspended in 5% FBS-containing PBS. These cells were used in Cell-ELISA and flow cytometric analysis.
In order to eliminate false-positive results in the Cell-ELISA, the specific binding ability of antibodies generated by the hybridomas that had been determined to be positive in the Cell-ELISA was confirmed by flow cytometry. The cells prepared in the above 1)-6-1 were mixed with a culture supernatant of the hybridomas, and the obtained mixture was then incubated at 4° C. for 1 hour. […]
For orientation: In flow cytometry, cells or beads pass a laser one at a time.

T1 sequence (P29317 24-976 limits assumed): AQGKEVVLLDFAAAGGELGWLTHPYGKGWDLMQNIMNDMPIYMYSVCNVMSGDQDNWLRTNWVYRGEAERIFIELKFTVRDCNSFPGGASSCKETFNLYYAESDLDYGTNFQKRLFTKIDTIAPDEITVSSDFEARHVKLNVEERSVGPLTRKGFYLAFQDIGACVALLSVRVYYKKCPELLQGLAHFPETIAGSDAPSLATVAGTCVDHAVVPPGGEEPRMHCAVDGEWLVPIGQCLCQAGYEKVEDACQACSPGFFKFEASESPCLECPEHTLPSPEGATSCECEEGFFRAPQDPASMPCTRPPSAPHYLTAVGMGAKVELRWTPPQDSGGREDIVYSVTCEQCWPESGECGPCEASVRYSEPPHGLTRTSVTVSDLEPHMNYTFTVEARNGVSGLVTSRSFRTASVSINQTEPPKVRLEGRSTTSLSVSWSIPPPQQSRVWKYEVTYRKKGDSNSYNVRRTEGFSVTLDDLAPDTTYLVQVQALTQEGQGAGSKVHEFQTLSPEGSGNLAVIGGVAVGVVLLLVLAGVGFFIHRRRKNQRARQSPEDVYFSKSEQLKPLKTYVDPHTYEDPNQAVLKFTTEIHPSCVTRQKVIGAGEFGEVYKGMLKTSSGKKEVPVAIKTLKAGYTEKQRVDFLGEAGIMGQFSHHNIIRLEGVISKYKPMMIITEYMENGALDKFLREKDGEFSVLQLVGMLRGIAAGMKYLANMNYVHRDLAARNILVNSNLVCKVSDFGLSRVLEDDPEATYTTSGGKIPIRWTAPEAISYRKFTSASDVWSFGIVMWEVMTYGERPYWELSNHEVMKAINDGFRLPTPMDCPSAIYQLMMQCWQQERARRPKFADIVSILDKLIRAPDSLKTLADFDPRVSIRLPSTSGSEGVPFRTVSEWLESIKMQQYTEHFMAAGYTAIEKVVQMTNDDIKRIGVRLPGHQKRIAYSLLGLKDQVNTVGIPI

B1: mouse anti-EPHA2 monoclonal antibody 57-1 (antibody, V domains shown)
VH: QIQLVQSGPELKKPGETVKISCKGSGYTFTNYGMNWVKQAPGKGLKWMAWINTDTGEPIFVEEFKGRFAFSLETSASTAYLQINNLTNEDTATYFCARSMGGFANWGQGTLVTVSA
VL: DIVMTQSPATLSVTPGDRVSLSCRASQNISDYLHWYQQKSHESPRLLIKYASQSISGIPSRFSGSGSGSDFTLTINSVEPEDVAMYYCQNGHTFPTFGAGTKLELKR
notes: The variable regions were found by 5'-RACE; Used unlabeled as capture antibody and biotin-labeled as detection antibody; also called biotin-labeled antibody 57-1
Consider B1, for which the binding result is given as “binds”.

B2: mouse anti-EPHA2 monoclonal antibody 230-1 (antibody, V domains shown)
VH: EVQLVESGGGLVKPGGSLKLSCEASGFTFSDYYMYWVRQTPEKRLEWVATISDDGSFTHYLDSVKGRFTISRDNAQNNLYLQMSSLKSDDTAMYYCARDGYRYDRPFAYWGQGTLVTVSA
VL: DIVMTQSHKFMSTSVGDRVRITCKASQDVNTAVAWYQQKPGQSPKLLIYWASTRHTGVPDRFTGSGSGTDYSLTISSVQAEDLALYYCQQHYSTPYTFGGGTKLEIKR
notes: The variable regions were found by 5'-RACE; Used unlabeled as capture antibody and biotin-labeled as detection antibody; also called biotin-labeled antibody 230-1
Take B2: the binding result was “binds”.
